Data on two molecules can be found in paper PMC12403663.

In data set [1] the target is retinol-binding protein 4 (RBP4, also printed RPB4) (UniProt P02753 19-201). Description: electrochemical aptasensor.
For data set [2], the target named is human serum albumin (HSA) (Homo sapiens, UniProt P02768 25-609). Description: electrochemical aptasensor.
Chain of human serum albumin (HSA) (P02768 25-609): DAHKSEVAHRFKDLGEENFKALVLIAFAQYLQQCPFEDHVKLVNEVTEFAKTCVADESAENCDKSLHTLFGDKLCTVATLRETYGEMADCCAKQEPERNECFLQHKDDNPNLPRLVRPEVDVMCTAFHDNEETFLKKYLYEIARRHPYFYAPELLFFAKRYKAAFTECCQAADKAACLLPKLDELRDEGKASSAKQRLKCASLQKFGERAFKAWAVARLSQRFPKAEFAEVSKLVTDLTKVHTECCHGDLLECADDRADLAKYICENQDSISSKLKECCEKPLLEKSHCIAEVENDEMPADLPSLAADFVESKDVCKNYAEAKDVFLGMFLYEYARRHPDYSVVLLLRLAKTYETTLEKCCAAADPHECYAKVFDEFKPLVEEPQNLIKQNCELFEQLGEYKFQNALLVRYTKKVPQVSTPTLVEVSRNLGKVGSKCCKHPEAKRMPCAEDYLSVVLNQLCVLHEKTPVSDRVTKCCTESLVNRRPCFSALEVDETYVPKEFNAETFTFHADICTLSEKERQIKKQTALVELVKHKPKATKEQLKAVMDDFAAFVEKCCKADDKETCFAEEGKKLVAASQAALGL

B1: RBP4-binding aptamer (ssDNA)
DNA: ATACCAGCTTATTCAATTACAGTAGTGAGGGGTCCGTCGTGGGGTAGTTGGGTCGTGGAGATAGTAAGTGC
modifications: 5' Amino C6; 3' Thiol C6 SS
As to B1, the binding result in data set [1] is listed as “binds”.
Regarding TGCGGTTGTAGTACTCGTGGCCG (ssDNA, 5' Amino C6; 3' Thiol C6 SS) [HSA-binding aptamer], the binding result in data set [2] was “binds”.
